Consider one molecule from PMC3683571 (2013).

Where no end group is shown, it is not given here.

This test deals with PSMA (Homo sapiens, UniProt Q04609). Description: electrochemical impedance spectroscopy.

One may read the Kd as the concentration at which binding is half-saturated. Lower therefore signals a tighter complex. For the molecule SECVEVFQNSCDW (cysteine pairing not given here; also: displayed on M13 phage) [phage-2 (phage-displayed peptide 2)], the equilibrium dissociation constant (Kd) turned out to be 54 nM.
